Experiment [1] has as its target T1, Recombinant Human MSP Receptor ECD-His tag (human, UniProt Q04912 25-957).
T1 construct: extracellular domain; bought reagent; also called RON
Nature of the experiment: SPR (Biacore), N-terminal VD.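 Also: capture of antibodies or DVD-Ig proteins on an anti-mouse IgG chip surface, recombinant antigen injected at 10–200 nM in HBS-EP running buffer at 25 °C.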 A general note: SPR reads the build-up and loss of mass on a sensor chip optically.

Experiment [2] concerns the target T2, Recombinant Human ErbB3/FC Chimera-His tag (human, UniProt P21860 20-643).
T2 construct: bought reagent
Nature of the experiment: SPR (Biacore), C-terminal VD.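 Also: surface plasmon resonance with DVD-Ig proteins captured on an anti-IgG chip and recombinant antigen flowed over in HBS-EP buffer, Langmuir global fit, KD taken as koff/kon.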
Protocol: The BIACORE assay (Biacore, Inc, Piscataway, N.J.) determined the affinity of antibodies or DVD-Ig proteins with kinetic measurements of on-rate and off-rate constants. Binding of antibodies or DVD-Ig proteins to a target antigen (for example, a purified recombinant target antigen) was determined by surface plasmon resonance-based measurements with a Biacore® 1000 or 3000 instrument (Biacore AB, Uppsala. Sweden) using running HBS-EP (10 mM HEPES [pH 7.4], 150 mM NaCl, 3 mM EDTA, and 0.005% surfactant P20) at 25° C. […] For example, approximately 5000 RU of goat anti-mouse IgG, (Fcγ), fragment specific polyclonal antibody (Pierce Biotechnology Inc, Rockford, Ill.) diluted in 10 mM sodium acetate (pH 4.5) was directly immobilized across a CM5 research grade biosensor chip using a standard amine coupling kit according to manufacturer's instructions and procedures at 25 μg/ml. Unreacted moieties on the biosensor surface were blocked with ethanolamine. Modified carboxymethyl dextran surface in flowcell 2 and 4 was used as a reaction surface. Unmodified carboxymethyl dextran without goat anti-mouse IgG in flow cell 1 and 3 was used as the reference surface. For kinetic analysis, rate equations derived from the 1:1 Langmuir binding model were fitted simultaneously to association and dissociation phases of all eight injections (using global fit analysis) with the use of Biaevaluation 4.0.1 software. Purified antibodies or DVD-Ig proteins were diluted in HEPES-buffered saline for capture across goat anti-mouse IgG specific reaction surfaces. Antibodies or DVD-Ig proteins to be captured as a ligand (25 μg/ml) were injected over reaction matrices at a flow rate of 5 μl/minute. The association and dissociation rate constants, kₒₙ (M⁻¹s⁻¹) and koff (s⁻¹) were determined under a continuous flow rate of 25 μl/minute. Rate constants were derived by making kinetic binding measurements at different antigen concentrations ranging from 10-200 nM. The equilibrium dissociation constant (M) of the reaction between antibodies or DVD-Ig proteins and the target antigen was then calculated from the kinetic rate constants by the following formula: KD=koff/kₒₙ. Binding was recorded as a function of time and kinetic rate constants were calculated.

In experiment [3] the target is T3, ErbB3 on the cell surface (human, UniProt P21860 20-1342).
T3 construct: whole, on cells
Briefly: flow cytometry on cells, 2 ug/mL, C-terminal VD.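 Also: cells stained for 30 to 60 min on ice.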
Protocol: (§1) Stable cell lines overexpressing a cell-surface antigen of interest or human tumor cell lines were harvested from tissue culture flasks and resuspended in phosphate buffered saline (PBS) containing 5% fetal bovine serum (PBS/FBS). Prior to staining, human tumor cells were incubated on ice with (100 μl) human IgG at 5 μg/ml in PBS/FCS. 1-5×10⁵ cells were incubated with antibody or DVD-Ig (2 μg/mL) in PBS/FBS for 30-60 minutes on ice. […] After 30 minutes incubation on ice, cells were washed twice and resuspended in PBS/FBS. Fluorescence was measured using a Becton Dickinson FACSCalibur (Becton Dickinson, San Jose, Calif.).
(§2) The geometric mean is the n root of the multiplication product of n fluorescent signals (a1×a2×a3 . . . an). With log-transformed data the geometric mean is used to normalize the weighting of the data distribution.

For another experiment, the target named is T4, EGFR on the cell surface (human, UniProt P00533 25-1210).
T4 construct: whole, on cells
Briefly: flow cytometry on cells, 2 ug/mL, N-terminal VD.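 Also: cells stained for 30 to 60 min on ice.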 For orientation: A flow cytometer gives signals particle by particle.

In experiment [4] the target is T3, ErbB3 on the cell surface. Briefly: flow cytometry on cells, 2 ug/mL.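 Also: cells stained for 30 to 60 min on ice.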
Protocol: as §1, §2
Experiment [5] concerns the target T3, ErbB3 on the cell surface. Nature of the experiment: flow cytometry on cells, 2 ug/mL, N-terminal VD.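 Also: cells stained for 30 to 60 min on ice.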
Protocol: as §1, §2

Protocol for EGFR on the cell surface: as §1, §2

B1: DVD2318 (bispecific antibody)
VH: EVQLVQSGGGLVKPGGSLRLSCAASGFTFSSYAMHWVRQAPGKGLEWVAVISYDGSNKYYADSVKGRFTISRDNSKNTLYLQMNSLRAEDTAVYYCARFSGWPNNYYYYGMDVWGQGTTVTVSSASTKGPEVQLVESGGGLVQPGGSLRLSCAASGFTFSIYSMNWVRQAPGKGLEWVSYISSSSSTIYYADSVKGRFTISRDNAKNSLYLQMNSLRDEDTAVYYCARDRGDFDAFDIWGQGTMVTVSS
VL: DVVMTQSPLSLPVTPGEPASISCRSSQSLLHSNGFNYVDWYLQKPGQSPHLLIYFGSYRASGVPDRFSGSGSGTDFTLKISRVEAEDVGVYYCMQALQTPPWTFGQGTKVEIRRTVAAPDIQMTQSPSSLSASVGDRVTITCQASQDITNYLNWYQQKPGKAPKLLIYDASNLETGVPSRFSGSGSGTDFTFTISSLQPEDIATYNCQQCENFPITFGQGTRLEIK
notes: DVD-Ig, outer AB005 / inner AB063
For the molecule B1, in experiment [1], the dissociation constant (Kd) was found to be 17 nM, the koff is 0.00092 s⁻¹ and the kon turned out to be 55000 M⁻¹ s⁻¹. For the same molecule, in experiment [2], the binding result is “no binding (tested: 10-200 nM)”.

B2: DVD2294 (bispecific antibody)
VH: EVQLVESGGGLVQPGGSLRLSCAASGFSLTNYGVHWVRQAPGKGLEWLGVGWSGGNTDYNTPFTSRLTINKDNSKNTVYLQMNSLRAEDTAVYYCARALTWYDYEFAYWGQGTLVTVSSASTKGPEVQLLESGGGLVQPGGSLRLSCAASGFTFSHYVMAWVRQAPGKGLEWVSSISSSGGWTLYADSVKGRFTISRDNSKNTLYLQMNSLRAEDTAVYYCTRGLKMATIFDYWGQGTLVTVSS
VL: DILLTQSPGTLSLSPGERATLSCRASQSIYTNIHWYQQKPGQAPRLLIKYASESISGIPDRFSGSGSGTDFTLTISRLEPEDFAVYYCQQNLNWPTTFGQGTKLEIKRTVAAPQSALTQPASVSGSPGQSITISCTGTSSDVGSYNVVSWYQQHPGKAPKLIIYEVSQRPSGVSNRFSGSKSGNTASLTISGLQTEDEADYYCCSYAGSSIFVIFGGGTKVTVL
notes: DVD-Ig, outer AB400 / inner AB116
Take B2: the “GEO MEAN” value in experiment [3] was 15; with EGFR on the cell surface, 618.

B3: AB067 (antibody, V domains shown)
VH: EVQLLESGGGLVQPGGSLRLSCAASGFTFSHYVMAWVRQAPGKGLEWVSSISSSGGWTLYADSVKGRFTISRDNSKNTLYLQMNSLRAEDTAVYYCTRGLKMATIFDYWGQGTLVTVSS
VL: QSALTQPASVSGSPGQSITISCTGTSSDVGSYNVVSWYQQHPGKAPKLIIYEVSQRPSGVSNRFSGSKSGNTASLTISGLQTEDEADYYCCSYAGSSIFVIFGGGTKVTVLG
notes: parent antibody
With B3, in experiment [4], the “GEO MEAN” value was 127.

B4: DVD2334 (bispecific antibody)
VH: QVQLQESGPGLVKPSEILSLTCTVSGGSISSHYWSWVRQPPGKGLEWIGYIYYSGSTNYNPSLKSRVTISVDTSKNQFSLNLSSVTAADTAVYYCARIPNYYDRSGYYPGYWYFDLWGRGTLVTVSSASTKGPQVQLQQWGAGLLKPSETLSLTCAVYGGSFSGYYWSWIRQPPGKGLEWIGEINHSGSTNYNPSLKSRVTISVETSKNQFSLKLSSVTAADTAVYYCARDKWTWYFDLWGRGTLVTVSS
VL: QAVLTQPSSLSAPPGASASLTCTLRSGFNVDSYRISWYQQKPGSPPQYLLRYKSDSDKQQGSGVPSRFSGSKDASANAGILLISGLQSEDEADYYCMIWHSSAWVFGGGTKLTVLRQPKAAPDIEMTQSPDSLAVSLGERATINCRSSQSVLYSSSNRNYLAWYQQNPGQPPKLLIYWASTRESGVPDRFSGSGSGTDFTLTISSLQAEDVAVYYCQQYYSTPRTFGQGTKVEIK
notes: DVD-Ig, outer AB034 / inner AB062
For the molecule B4, in experiment [1], the Kd is 4.9 nM. Further, the binding result in experiment [2] is reported as “no binding (tested: 10-200 nM)”.

B5: DVD2322 (bispecific antibody)
VH: EVQLVQSGGGLVKPGGSLRLSCAASGFTFSSYAMHWVRQAPGKGLEWVAVISYDGSNKYYADSVKGRFTISRDNSKNTLYLQMNSLRAEDTAVYYCARFSGWPNNYYYYGMDVWGQGTTVTVSSASTKGPQVQLQQWGAGLLKPSETLSLTCAVYGGSFSGYYWSWIRQPPGKGLEWIGEINHSGSTNYNPSLKSRVTISVETSKNQFSLKLSSVTAADTAVYYCARDKWTWYFDLWGRGTLVTVSS
VL: DVVMTQSPLSLPVTPGEPASISCRSSQSLLHSNGFNYVDWYLQKPGQSPHLLIYFGSYRASGVPDRFSGSGSGTDFTLKISRVEAEDVGVYYCMQALQTPPWTFGQGTKVEIRRTVAAPDIEMTQSPDSLAVSLGERATINCRSSQSVLYSSSNRNYLAWYQQNPGQPPKLLIYWASTRESGVPDRFSGSGSGTDFTLTISSLQAEDVAVYYCQQYYSTPRTFGQGTKVEIK
notes: DVD-Ig, outer AB005 / inner AB062
Consider B5, for which, in experiment [1], the Kd was found to be 17 nM, the koff was 0.00087 s⁻¹ and the on-rate (kon) amounted to 51000 M⁻¹ s⁻¹. Moreover, the binding result in experiment [2] is listed as “no binding (tested: 10-200 nM)”.

B6: DVD2296 (bispecific antibody)
VH: EVQLVESGGGLVQPGGSLRLSCAASGFSLTNYGVHWVRQAPGKGLEWLGVGWSGGNTDYNTPFTSRLTINKDNSKNTVYLQMNSLRAEDTAVYYCARALTWYDYEFAYWGQGTLVTVSSASTKGPQVQLQQWGAGLLKPSETLSLTCAVYGGSFSGYYWSWIRQPPGKGLEWIGEINHSGSTNYNPSLKSRVTISVETSKNQFSLKLSSVTAADTAVYYCARDKWTWYFDLWGRGTLVTVSS
VL: DILLTQSPGTLSLSPGERATLSCRASQSIYTNIHWYQQKPGQAPRLLIKYASESISGIPDRFSGSGSGTDFTLTISRLEPEDFAVYYCQQNLNWPTTFGQGTKLEIKRTVAAPDIEMTQSPDSLAVSLGERATINCRSSQSVLYSSSNRNYLAWYQQNPGQPPKLLIYWASTRESGVPDRFSGSGSGTDFTLTISSLQAEDVAVYYCQQYYSTPRTFGQGTKVEIK
notes: DVD-Ig, outer AB400 / inner AB062
Turning to B6, the entries for the “GEO MEAN” value (in experiment [3]; with EGFR on the cell surface) were 16.6 and 490, respectively.

B7: DVD2293 (bispecific antibody)
VH: EVQLVESGGGLVQPGGSLRLSCAASGFTFSIYSMNWVRQAPGKGLEWVSYISSSSSTIYYADSVKGRFTISRDNAKNSLYLQMNSLRDEDTAVYYCARDRGDFDAFDIWGQGTMVTVSSASTKGPEVQLVESGGGLVQPGGSLRLSCAASGFSLTNYGVHWVRQAPGKGLEWLGVGWSGGNTDYNTPFTSRLTINKDNSKNTVYLQMNSLRAEDTAVYYCARALTWYDYEFAYWGQGTLVTVSS
VL: DIQMTQSPSSLSASVGDRVTITCQASQDITNYLNWYQQKPGKAPKLLIYDASNLETGVPSRFSGSGSGTDFTFTISSLQPEDIATYNCQQCENFPITFGQGTRLEIKRTVAAPDILLTQSPGTLSLSPGERATLSCRASQSIYTNIHWYQQKPGQAPRLLIKYASESISGIPDRFSGSGSGTDFTLTISRLEPEDFAVYYCQQNLNWPTTFGQGTKLEIK
notes: DVD-Ig, outer AB063 / inner AB400
Consider B7, for which the “GEO MEAN” value in experiment [5] worked out at 135.

B8: AB062 (antibody, V domains shown)
VH: QVQLQQWGAGLLKPSETLSLTCAVYGGSFSGYYWSWIRQPPGKGLEWIGEINHSGSTNYNPSLKSRVTISVETSKNQFSLKLSSVTAADTAVYYCARDKWTWYFDLWGRGTLVTVSS
VL: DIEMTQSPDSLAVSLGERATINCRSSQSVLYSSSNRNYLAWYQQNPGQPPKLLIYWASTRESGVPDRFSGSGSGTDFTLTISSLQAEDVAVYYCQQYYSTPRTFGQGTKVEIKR
notes: parent antibody
As to B8, in experiment [4], the “GEO MEAN” value turned out to be 132.

B9: DVD2292 (bispecific antibody)
VH: EVQLVESGGGLVQPGGSLRLSCAASGFSLTNYGVHWVRQAPGKGLEWLGVGWSGGNTDYNTPFTSRLTINKDNSKNTVYLQMNSLRAEDTAVYYCARALTWYDYEFAYWGQGTLVTVSSASTKGPEVQLVESGGGLVQPGGSLRLSCAASGFTFSIYSMNWVRQAPGKGLEWVSYISSSSSTIYYADSVKGRFTISRDNAKNSLYLQMNSLRDEDTAVYYCARDRGDFDAFDIWGQGTMVTVSS
VL: DILLTQSPGTLSLSPGERATLSCRASQSIYTNIHWYQQKPGQAPRLLIKYASESISGIPDRFSGSGSGTDFTLTISRLEPEDFAVYYCQQNLNWPTTFGQGTKLEIKRTVAAPDIQMTQSPSSLSASVGDRVTITCQASQDITNYLNWYQQKPGKAPKLLIYDASNLETGVPSRFSGSGSGTDFTFTISSLQPEDIATYNCQQCENFPITFGQGTRLEIK
notes: DVD-Ig, outer AB400 / inner AB063
As for B9, the “GEO MEAN” value in experiment [3] was found to be 20.6; in the experiment with EGFR on the cell surface it was 519.

B10: DVD2320 (bispecific antibody)
VH: EVQLVQSGGGLVKPGGSLRLSCAASGFTFSSYAMHWVRQAPGKGLEWVAVISYDGSNKYYADSVKGRFTISRDNSKNTLYLQMNSLRAEDTAVYYCARFSGWPNNYYYYGMDVWGQGTTVTVSSASTKGPEVQLLESGGGLVQPGGSLRLSCAASGFTFSHYVMAWVRQAPGKGLEWVSSISSSGGWTLYADSVKGRFTISRDNSKNTLYLQMNSLRAEDTAVYYCTRGLKMATIFDYWGQGTLVTVSS
VL: DVVMTQSPLSLPVTPGEPASISCRSSQSLLHSNGFNYVDWYLQKPGQSPHLLIYFGSYRASGVPDRFSGSGSGTDFTLKISRVEAEDVGVYYCMQALQTPPWTFGQGTKVEIRRTVAAPQSALTQPASVSGSPGQSITISCTGTSSDVGSYNVVSWYQQHPGKAPKLIIYEVSQRPSGVSNRFSGSKSGNTASLTISGLQTEDEADYYCCSYAGSSIFVIFGGGTKVTVL
notes: DVD-Ig, outer AB005 / inner AB116
B10: in experiment [1], the Kd was found to be 25 nM, the koff was 0.00094 s⁻¹ and the kon was 37000 M⁻¹ s⁻¹. Also, in experiment [2], the binding result is reported as “no binding (tested: 10-200 nM)”.

B11: DVD2332 (bispecific antibody)
VH: QVQLQESGPGLVKPSEILSLTCTVSGGSISSHYWSWVRQPPGKGLEWIGYIYYSGSTNYNPSLKSRVTISVDTSKNQFSLNLSSVTAADTAVYYCARIPNYYDRSGYYPGYWYFDLWGRGTLVTVSSASTKGPEVQLLESGGGLVQPGGSLRLSCAASGFTFSHYVMAWVRQAPGKGLEWVSSISSSGGWTLYADSVKGRFTISRDNSKNTLYLQMNSLRAEDTAVYYCTRGLKMATIFDYWGQGTLVTVSS
VL: QAVLTQPSSLSAPPGASASLTCTLRSGFNVDSYRISWYQQKPGSPPQYLLRYKSDSDKQQGSGVPSRFSGSKDASANAGILLISGLQSEDEADYYCMIWHSSAWVFGGGTKLTVLRQPKAAPQSALTQPASVSGSPGQSITISCTGTSSDVGSYNVVSWYQQHPGKAPKLIIYEVSQRPSGVSNRFSGSKSGNTASLTISGLQTEDEADYYCCSYAGSSIFVIFGGGTKVTVL
notes: DVD-Ig, outer AB034 / inner AB116
Regarding B11, the binding result in experiment [1] and in experiment [2] was “no binding (tested: 10-200 nM)” in each case.

B12: AB063 (antibody, V domains shown)
VH: EVQLVESGGGLVQPGGSLRLSCAASGFTFSIYSMNWVRQAPGKGLEWVSYISSSSSTIYYADSVKGRFTISRDNAKNSLYLQMNSLRDEDTAVYYCARDRGDFDAFDIWGQGTMVTVSS
VL: DIQMTQSPSSLSASVGDRVTITCQASQDITNYLNWYQQKPGKAPKLLIYDASNLETGVPSRFSGSGSGTDFTFTISSLQPEDIATYNCQQCENFPITFGQGTRLEIKR
notes: parent antibody
Turning to B12, in experiment [4], the “GEO MEAN” value is 128.

In general, Kd refers to a measure of binding affinity in units of concentration. In general, koff refers to the first-order rate constant of dissociation. One may read the kon as the second-order rate constant of association.

The record behind these values is US20130195871A1 (AbbVie / Abbott, published 2013).
